In the experiment the target is RVC20 (mature), recombinant human IgG1 (human). The experiment is described as follows: BLI. (In general: Biolayer interferometry detects binding as a change in optical thickness at a sensor tip.)

“And” between values parts separate entries of the source, which are not always exact repeats. Equal values may be shown once.

RVC20 (mature), recombinant human IgG1 (human), sequence (heavy, as listed by the source, chain 1 of 2): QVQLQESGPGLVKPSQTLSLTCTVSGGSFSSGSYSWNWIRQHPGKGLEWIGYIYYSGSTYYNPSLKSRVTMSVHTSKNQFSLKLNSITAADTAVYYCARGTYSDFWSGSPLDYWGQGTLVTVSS
RVC20 (mature), recombinant human IgG1 (human), sequence (light, as listed by the source, chain 2 of 2): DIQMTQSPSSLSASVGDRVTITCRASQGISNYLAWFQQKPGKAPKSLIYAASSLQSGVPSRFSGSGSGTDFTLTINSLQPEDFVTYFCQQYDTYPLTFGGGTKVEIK

Regarding “RABV G domain III (E31-V56 and N182-D262 joined by three glycines), strain 9147FRA (domain or fragment)”, the Kd is 7.95 nM and 11.3 nM and 12.2 nM.

As usually defined, the Kd is the equilibrium constant for the complex coming apart.

For the origin of these results see article PMC6992781.
